One block for each substance: values may come before it.
Target: human CXCR2 (human) (UniProt P25025)
Test: cell-based or functional assay

human CXCR2 (human), sequence (P25025 whole entry): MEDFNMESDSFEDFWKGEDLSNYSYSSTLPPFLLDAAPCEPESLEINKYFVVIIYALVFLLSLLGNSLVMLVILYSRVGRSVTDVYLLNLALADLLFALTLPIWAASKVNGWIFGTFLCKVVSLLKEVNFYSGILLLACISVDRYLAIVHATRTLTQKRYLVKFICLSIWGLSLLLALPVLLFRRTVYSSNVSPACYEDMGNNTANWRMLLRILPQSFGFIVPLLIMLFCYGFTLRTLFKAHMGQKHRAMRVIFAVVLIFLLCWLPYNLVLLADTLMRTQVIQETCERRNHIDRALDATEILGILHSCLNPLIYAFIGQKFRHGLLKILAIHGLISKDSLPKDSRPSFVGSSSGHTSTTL
human CXCL2, sequence (P19875 35-107 limits assumed): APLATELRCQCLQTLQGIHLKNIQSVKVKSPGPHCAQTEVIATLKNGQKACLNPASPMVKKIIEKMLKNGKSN
human CXCL1, sequence (P09341 35-107 limits assumed): as the sequence (P19875 35-107 limits assumed) above, with P2S, L3V, L20P, K27N, Q48R, M58I, K68N, N69S, G70D counted along it
human CXCL5, sequence (P42830 37-114 limits assumed): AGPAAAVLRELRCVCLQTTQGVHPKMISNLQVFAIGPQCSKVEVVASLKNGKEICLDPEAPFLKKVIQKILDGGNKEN
human CXCL3, sequence (P19876 35-107 limits assumed): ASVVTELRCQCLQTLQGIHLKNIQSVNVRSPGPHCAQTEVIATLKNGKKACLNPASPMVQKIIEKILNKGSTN
human CXCL8, sequence (P10145 28-99 limits assumed): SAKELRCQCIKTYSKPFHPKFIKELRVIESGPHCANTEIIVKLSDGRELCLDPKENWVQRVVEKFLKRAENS
human CXCL6, sequence (P80162 38-114 limits assumed): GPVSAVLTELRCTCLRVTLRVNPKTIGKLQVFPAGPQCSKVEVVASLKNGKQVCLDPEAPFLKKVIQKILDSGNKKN

CXCL1 IC50, calcium flux: 1.29 nM
CXCL1 IC50, β-arrestin recruitment: 1.47 nM
CXCL1 Maximal Inhibition %, calcium flux: 93%
CXCL1 Maximal Inhibition %, β-arrestin recruitment: 96%
CXCL5 IC50, β-arrestin recruitment: 0.75 nM
CXCL5 Maximal Inhibition %, β-arrestin recruitment: 99%
CXCL8 IC50, β-arrestin recruitment: 1.01 nM
CXCL8 Maximal Inhibition %, calcium flux: 1%
CXCL8 Maximal Inhibition %, β-arrestin recruitment: 94%
Substance: Antagonist 4 (anti-CXCR2 antibody clone 6C6, BD Biosciences 555932)

EC50 mean, Tango assay: 33.3 nM
EC50 mean, calcium flux assay: 37 nM
Substance: human CXCL2 (from UniProt P19875 35-107) (ligand)

EC50 mean, Tango assay: 11.9 nM
EC50 mean, calcium flux assay: 12.2 nM
Substance: human CXCL3 (from UniProt P19876 35-107) (ligand)

EC50 mean, Tango assay: 9.4 nM
EC50 mean, calcium flux assay: 28.9 nM
Substance: human CXCL6 (from UniProt P80162 38-114) (ligand)

EC50 mean, Tango assay: 2.2 nM
EC50 mean, calcium flux assay: 3.2 nM
Substance: human CXCL8 (from UniProt P10145 28-99) (ligand)

Further lines, the substance ahead of its results:

Substance: Antagonist 3 (anti-CXCR2 antibody clone 48311, R&D systems MAB331-500)
CXCL1 IC50, calcium flux: 30.7 nM
CXCL1 IC50, β-arrestin recruitment: 14.8 nM
CXCL1 Maximal Inhibition %, calcium flux: 37%
CXCL1 Maximal Inhibition %, β-arrestin recruitment: 85%
CXCL5 IC50, β-arrestin recruitment: 8.12 nM
CXCL5 Maximal Inhibition %, β-arrestin recruitment: 96%
CXCL8 Maximal Inhibition %, calcium flux: 18%
CXCL8 Maximal Inhibition %, β-arrestin recruitment: 82%

Substance: human CXCL1 (from UniProt P09341 35-107) (ligand)
EC50 mean, Tango assay: 2.3 nM
EC50 mean, calcium flux assay: 2.62 nM

Substance: human CXCL5 (from UniProt P42830 37-114) (ligand)
EC50 mean, Tango assay: 97.7 nM
EC50 mean, calcium flux assay: 39.2 nM

Source: patent US20240301076A1
